Positions count from the first letter of the chain named.
What was measured:
Experiment in all cases: pull-down
[1] = molecular target: T1, 6H–hTFIIEα S365A (human, UniProt P29083 1-439, S365A)
T1 sequence: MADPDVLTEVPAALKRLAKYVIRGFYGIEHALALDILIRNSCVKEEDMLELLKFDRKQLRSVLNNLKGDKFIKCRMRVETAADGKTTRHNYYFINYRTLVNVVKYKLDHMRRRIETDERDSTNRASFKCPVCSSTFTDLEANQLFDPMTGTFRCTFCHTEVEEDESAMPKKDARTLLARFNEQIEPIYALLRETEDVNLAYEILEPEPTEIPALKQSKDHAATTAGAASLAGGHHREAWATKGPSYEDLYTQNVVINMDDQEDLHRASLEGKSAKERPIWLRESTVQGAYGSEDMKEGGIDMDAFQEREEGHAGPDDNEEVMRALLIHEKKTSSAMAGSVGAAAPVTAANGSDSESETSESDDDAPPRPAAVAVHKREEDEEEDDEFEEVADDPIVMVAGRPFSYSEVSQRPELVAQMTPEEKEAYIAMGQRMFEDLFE

[2] = molecular target: T2, 6H–hTFIIEα S365E (human, UniProt P29083 1-439, S365E)
T2 sequence: T1 sequence with A365E

[3] = molecular target: T3, 6H–hTFIIEα V372D (human, UniProt P29083 1-439, V372D)
T3 sequence: T1 sequence with A365S, V372D

[4] = molecular target: T4, 6H–hTFIIEα F387A (human, UniProt P29083 1-439, F387A)
T4 sequence: T1 sequence with A365S, F387A

[5] = molecular target: T5, 6H–hTFIIEα V390A (human, UniProt P29083 1-439, V390A)
T5 sequence: T1 sequence with A365S, V390A

Measured: binding result

B1: GST-tagged hTFIIEβ (natural protein)
chain: MDPSLLRERELFKKRALSTPVVEKRSASSESSSSSSKKKKTKVEHGGSSGSKQNSDHSNGSFNLKALSGSSGYKFGVLAKIVNYMKTRHQRGDTHPLTLDEILDETQHLDIGLKQKQWLMTEALVNNPKIEVIDGKYAFKPKYNVRDKKALLRLLDQHDQRGLGGILLEDIEEALPNSQKAVKALGDQILFVNRPDKKKILFFNDKSCQFSVDEEFQKLWRSVTVDSMDEEKIEEYLKRQGISSMQESGPKKVAPIQRRKKPASQKKRRFKTHNEHLAGVLKDYSDITSSK
binds: all assays above

Source: paper PMC2275666 (The EMBO Journal, 2008)
